Experimental data taken from article PMC8660895, “Hedgehog-Interacting Protein is a multimodal antagonist of Hedgehog signalling” (Nature Communications, 2021).
“And” between values parts separate entries of the source, which are not always exact repeats. Equal entries are not always repeated. One block for each molecule: values may come before it.

What was measured:
HHIP-C = target: T1, HHIP-C (Homo sapiens, UniProt Q96QV1); assay: X-ray crystallography (molecular replacement); type: binding; settings: co-crystallised with 10 mM SOS, pH 8.5; two SOS molecules per chain, same site as heparin
T1 construct: C-terminal domain (beta-propeller + 2 EGF repeats), residues 213-670, C-terminal His6 tag, HEK293T with kifunensine; EndoF1-deglycosylated for crystals; mostly monomer without GAG, anti-parallel dimer in crystal
T1 sequence (Q96QV1 213-670): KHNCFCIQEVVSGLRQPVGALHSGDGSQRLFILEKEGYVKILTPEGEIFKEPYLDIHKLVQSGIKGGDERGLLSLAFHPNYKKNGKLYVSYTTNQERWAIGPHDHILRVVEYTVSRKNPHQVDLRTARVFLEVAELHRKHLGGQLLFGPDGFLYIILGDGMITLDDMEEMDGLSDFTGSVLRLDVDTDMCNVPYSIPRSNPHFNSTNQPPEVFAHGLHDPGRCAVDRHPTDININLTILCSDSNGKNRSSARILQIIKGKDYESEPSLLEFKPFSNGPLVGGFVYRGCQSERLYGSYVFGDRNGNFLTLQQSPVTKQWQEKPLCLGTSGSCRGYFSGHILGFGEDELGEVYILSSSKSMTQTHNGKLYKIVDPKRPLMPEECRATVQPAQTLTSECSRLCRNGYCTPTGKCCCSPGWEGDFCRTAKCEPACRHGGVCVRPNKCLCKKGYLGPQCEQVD

heparan sulphate (HS) = assay: SPR; settings: GAGs immobilised on the chip; [HHIP-C] 0-40 µM; parent: 0.5 µM
[1] = target: chondroitin sulphate (CS); assay: SPR; settings: GAGs immobilised on the chip; [HHIP-C] 0-40 µM; parent: 0.7 µM
heparin = assay: SPR; settings: GAGs immobilised on the chip; [HHIP-C] 0-40 µM; parent: 0.2 µM
[2] = target: HHIP N-terminal domain (HHIP-N) (human) (UniProt Q96QV1); assay: SEC-MALS; HHIP-N on S200 10/30 column; 10 mM HEPES pH 7.5, 150 mM NaCl; 48–192 μM injected
HHIP-N = target: T2, HHIP-N (Homo sapiens, UniProt Q96QV1); assay: isothermal titration calorimetry; type: binding; settings: pH 7.5, 25 °C, 150 mM NaCl, 3% isopropanol; PEG length and linkage of the conjugate not told
T2 construct: EndoF1-deglycosylated for crystals
T2 sequence (Q96QV1 39-209): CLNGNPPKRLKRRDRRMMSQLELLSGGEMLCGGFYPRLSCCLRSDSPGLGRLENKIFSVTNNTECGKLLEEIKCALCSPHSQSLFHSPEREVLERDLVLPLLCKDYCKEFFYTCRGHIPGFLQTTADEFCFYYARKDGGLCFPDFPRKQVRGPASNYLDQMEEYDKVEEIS

[3] = target: the molecule itself; assay: AUC; sedimentation velocity; HHIP-C alone at 1 mg/mL; 10 mM HEPES pH 7.5, 120 mM NaCl; 20 °C; c(s) distributions

Molecule: O=S(=O)(O)OC[C@H]1O[C@@](COS(=O)(=O)O)(O[C@H]2O[C@H](COS(=O)(=O)O)[C@@H](OS(=O)(=O)O)[C@H](OS(=O)(=O)O)[C@H]2OS(=O)(=O)O)[C@@H](OS(=O)(=O)O)[C@@H]1OS(=O)(=O)O [sucrose octasulphate]
X-ray crystallography (molecular replacement) (HHIP-C): We also determined the crystal structure of a HHIP-C:SOS complex

Molecule: HHIP N-terminal domain (HHIP-N) (from UniProt Q96QV1 39-209) (domain or fragment)
stoichiometry N [2]: 2

B1: HHIP C-terminal domain (HHIP-C) (domain or fragment, human, UniProt Q96QV1 213-670, looked up)
chain: KHNCFCIQEVVSGLRQPVGALHSGDGSQRLFILEKEGYVKILTPEGEIFKEPYLDIHKLVQSGIKGGDERGLLSLAFHPNYKKNGKLYVSYTTNQERWAIGPHDHILRVVEYTVSRKNPHQVDLRTARVFLEVAELHRKHLGGQLLFGPDGFLYIILGDGMITLDDMEEMDGLSDFTGSVLRLDVDTDMCNVPYSIPRSNPHFNSTNQPPEVFAHGLHDPGRCAVDRHPTDININLTILCSDSNGKNRSSARILQIIKGKDYESEPSLLEFKPFSNGPLVGGFVYRGCQSERLYGSYVFGDRNGNFLTLQQSPVTKQWQEKPLCLGTSGSCRGYFSGHILGFGEDELGEVYILSSSKSMTQTHNGKLYKIVDPKRPLMPEECRATVQPAQTLTSECSRLCRNGYCTPTGKCCCSPGWEGDFCRTAKCEPACRHGGVCVRPNKCLCKKGYLGPQCEQVD
notes: Cloned in pHLsec; For crystallisation the protein was deglycosylated with endoglycosidase F1; also called HHIP-C WT; apo HHIP-C; source: HEK293T, transient transfection with kifunensine, purified from conditioned medium (HisTrap, SEC)
stoichiometry N [3]: 2 and 3

Continued, values first:

Kd (heparan sulphate (HS)): 40 µM
Kd [1]: 30 µM
Kd (heparin): 110 µM
Molecule: HHIP C-terminal domain (HHIP-C) (from UniProt Q96QV1) K277E; R328E; R350E; K569E; R610E; R613E

Kd (HHIP-N): 23 µM
Molecule: PEG-cholesterol
